Experimental data as given in patent US20070160987A1.

Molecular target: endogenous human CXC chemokine receptor subtype 3 (CXCR3) (human) (UniProt P49682)
Assay: cell-based or functional assay

UniProt P49682, sequence (P49682 whole entry): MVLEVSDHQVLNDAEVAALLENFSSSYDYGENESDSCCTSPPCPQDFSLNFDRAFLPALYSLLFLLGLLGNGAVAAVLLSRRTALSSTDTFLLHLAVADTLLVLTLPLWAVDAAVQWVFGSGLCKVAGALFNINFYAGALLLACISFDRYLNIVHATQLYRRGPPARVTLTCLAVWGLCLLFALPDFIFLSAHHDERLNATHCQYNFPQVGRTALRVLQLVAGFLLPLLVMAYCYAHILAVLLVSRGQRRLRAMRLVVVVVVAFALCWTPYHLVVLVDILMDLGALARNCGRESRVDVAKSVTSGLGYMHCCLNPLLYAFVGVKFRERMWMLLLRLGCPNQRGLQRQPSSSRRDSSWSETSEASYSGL

Row | Substance | EC50, pigment aggregation in pre-dispersed (MSH-treated) melanophores transfected with the receptor [nM]
1 | γ-interferon inducible protein-10 (IP-10) (from UniProt P02778 22-98) (ligand) | 0.15
2 | monokine inducible γ-interferon (Mig) (from UniProt Q07325 23-125) (ligand) | 0.29
